Measured values: the domain aggregation screens of Martell et al. (2025)

Experiment: soluble fraction after stress (log2 fold change); higher = more stays soluble; pooled small domains, quantitative proteomics
Conditions: stress: 50 degC
In short: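 The stress applied to every library was 50°C. These custom libraries of small protein domains were pooled and measured at high throughput with quantitative proteomics as the read-out. Aggregation propensity is expressed as the base-two logarithm of the fold change in how much of each protein remains soluble. The higher the value, the more of that protein stays in solution.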
In the case of “HMQEAGKWLKKLRTERKITLEQLSKKTGLSVGFLSQFERGLTSIAIDTLEKIAAVFNVTIDYFISP”, the “soluble fraction (log2)” value is reported as 0.0423.
In the case of “HMQVTIGADLAEHAARLDVQISDVVKLIKSGVSEGEIKVGLTKLETRLAHPELALVENKLAYLKALIAES”, the “soluble fraction (log2)” value is reported as -0.243.
In the case of “HMQNEKLSYFVTETIVTERADLFITKKFPQFSRSQIQKLINSGNITINSNPIKASTEIINKDNIEITIPV”, the “soluble fraction (log2)” value is reported as -1.14.
For “HMTSVAGIERFLASGAIKGMGAATAKLIVEHFGADTLNMLDMYPERLTEIKGIGPKKATAIIEGYRELS”, the “soluble fraction (log2)” value was -0.751.
With “HMQVPDLYRTLGVGRDATTEAIEAAYVGWQARLSAGEPISTQEWERLRYAHEVLSNPQRRSLYDSLVAET” the “soluble fraction (log2)” value was 0.0709.
For “HMSNTGDIIRKLREESGVTAKELAHRIGLSASQMSRLESGKRRINSEVLTRIARALEVAPSQLID”, the “soluble fraction (log2)” value was -0.136.
With “HMEYKYNPADYPYPLNEDIEKVYSAYREKSIGKLEAAVQNLYYTLKQARRDNILSDVKVNEMQQYFLALRN” the “soluble fraction (log2)” value was -0.324.
In the case of “HMFEKIDINFADIHQLKGLPLNSEQINSIIEYRNQNGFIENIYDLKNVNGISIDKVHELKSYIFIIDV”, the “soluble fraction (log2)” value is reported as -2.42.
With “HMSAHDLQVVLRWIGTDEPMTDQRYRITTEDGRTFEGRTDDAGLTERVASTIPFGRYSIEALD” the “soluble fraction (log2)” value was -0.441.
With “HMLSAPMPGTVLEVHVKEGQRVREGQTLVVMEAMKMEHRVQAPRAGVVTKLHYSEGDRVDVGAILVEIG” the “soluble fraction (log2)” value was 0.0919.
For “HMDDMVLEIGPGIGTMTQYLAEAAGKVVAVEIDRNLLPILQETLADYDNVKVIHADVLSLDLEKLVQEE”, the “soluble fraction (log2)” value was -0.000883.
With “HMPQKIVIQKGVVIKKRERSDAWQIYITVKGKKPIRKSANTDNVEKAKQMALTLFAEKNYKVENNLPIQ” the “soluble fraction (log2)” value was -1.18.
With “HMRIVSGRESMLGRTVVVADWAGERGHVVVDGERWNAVASTPLAAGRRARIVGIDGLTLSVSPDDKP” the “soluble fraction (log2)” value was 0.216.
For “HMSDVLPEAILERRLVKKGNRAVPQVLIKWTKLPATSATWEDFYVLQQRFPTALAWGQAPSPGGQM”, the “soluble fraction (log2)” value was -0.221.
For “HMEYSAAYDRELESIFNLTERGKWEEAEAEVGLLLQQYPEDKTLLRISEWVATQKTILREQAIEDRIRS”, the “soluble fraction (log2)” value was 0.186.
With “HMSHFRMLPSITEADAFLKSRSLPAGLEVREQVDAFLAQARQTLALAQEAPWLSKQEVLETLADEFVQTS” the “soluble fraction (log2)” value was -0.496.
In the case of “HMFRPDYYEILQVDRHASPEVITAAYRQLLSIYNSEQDGNKQMIKLIQEAYGVLGDSQDRWLYDSWLDNN”, the “soluble fraction (log2)” value is reported as -0.746.
In the case of “HMKDSKSALQEYALERKMGLPVYEVVDRSGPDHAPQFVIAVSLGEWRLEAKGASKRQAEQQAASLMLEEI”, the “soluble fraction (log2)” value is reported as -0.353.
In the case of “HMAGPTIVTNSQGVPNYHLVKRGDTVSQIAQRYGLNYRQIGAINNLDSKYTIYSGQWLKLWQG”, the “soluble fraction (log2)” value is reported as -0.702.
In the case of “HMVNIAVMTVSDTRTEADDKSGSLLVSKIEGDGHVLADRAIITDDVPRIIAKLKEWIESPQVDVVVT”, the “soluble fraction (log2)” value is reported as 0.0468.
With “HMQKWILVNKQGRLSGILDHRAFNTRESATAWFQRTSDISGGTIKIDDYYYVLKNEEYKLLKE” the “soluble fraction (log2)” value was -3.15.
In the case of “HMTTRQREALLDYLSRHPDQPLTVREIAAGVEPDGVSLSAVYRNLAELEAAGLIRRESRPGSREAVVQYV”, the “soluble fraction (log2)” value is reported as 0.049.
In the case of “HMGMIRFSKEEQMLMMLYSPGSRLGLIAELESMKLQLNSRERKLRNLAESVLKKLEQITDEEFMQFDF”, the “soluble fraction (log2)” value is reported as -1.31.
For “HMIMTHSALLEKDGFDIVKVHFERPNDDGFDFLDMTLPGEIVYKSFGFSEDEILKLKRYAKNNSSLIWDF”, the “soluble fraction (log2)” value was -2.31.
In the case of “HMQSLSDQVFFYLKERIINNEMVPGSIISIEKLTSEFGISNTPVREAIVRLAGLDLVTIHRNKNITVS”, the “soluble fraction (log2)” value is reported as -2.39.
For “HMRTVPEALLGRAYETAETAIVLEGLEAKRTDVFHPTIGNGTVIRLEPASGSQVSAGGVIEIFVSKGTETI”, the “soluble fraction (log2)” value was -0.305.
With “HMRGHASVEIKRIVYKYKLTDQELAKITGMKASDFPIYHDHLQLILPKRYWARVLDALQNYEKEHES” the “soluble fraction (log2)” value was -4.18.
For “HMSDKEDIDKYLLTYGDLLFNRTNSSEWVGKTAIYRGEVSAIYAGYLIRIRSFLDAEYLNSVMNSKYA”, the “soluble fraction (log2)” value was -0.235.
For “HMLEQISDPEVLSKLADEVLSQQEKMVMDYRKGKTAAFQGLMGQMMKKTKGKGNPAKIQEILAQKL”, the “soluble fraction (log2)” value was 0.193.
With “HMENINIRNMGIRAVEAAIISLSPDQRTFTWGATNKKLVTVPYEENPYSALAAFFKTDDGIEIYDAIEKRL” the “soluble fraction (log2)” value was -0.892.
With “HMSGRVPTADDIAVGMKVYVPRLGGTGTVVTEPVRDKVVIQVGSLRLHAEVAELLLPDEHGRIQVPR” the “soluble fraction (log2)” value was 0.00655.
In the case of “HMERDVNQLTPRERDILKLIAQGLPNKMIARRLDITESTVKVHVKHMLKKMKLKSRVEAAVWVHQERI”, the “soluble fraction (log2)” value is reported as -1.38.
In the case of “HMKEIPTKKGDMLEIYEANGKYILKYPTFNITMPEVVKEIPKEAVDSYLAGKHDGEELINYANFGFWKS”, the “soluble fraction (log2)” value is reported as -0.185.
In the case of “HMRSASFDIMSQKQSDATLGYERVYDTETNEVYKAYNGFTDDYDGERYKSISDNMYTKGISGYIEK”, the “soluble fraction (log2)” value is reported as 0.327.
With “HMPLLADLPNLLRKVLKQHPGRVVDVDLERGRQGREIYHVRVLQENGQVRGLFVDASTGELVS” the “soluble fraction (log2)” value was -0.224.
With “HMYSYSFTSSEGSTFEGQLIRVEESQVTILRYADQKEFSIPKSRFIEADQVYFERWAIENPQL” the “soluble fraction (log2)” value was -4.33.
In the case of “HMNPNFIEVSHGRLRVNVPLSAYEGTTYHIKPEEAEKLKRTLASRYPWLTPNALKVFIEEAEQAMRERIQ”, the “soluble fraction (log2)” value is reported as -0.29.
In the case of “HMSIYQYFNISEINSIDDLKKQYFKLAKKYHPDAGGDKVSFQELQNEYEQLTKKILSGAELNADELKTE”, the “soluble fraction (log2)” value is reported as -0.109.
In the case of “HMSFNLSETKKLILEEIQKGVSSVTQIAATAGISKGMTYNHLRELKLMGYIADGDSGYVITDAGKIAS”, the “soluble fraction (log2)” value is reported as -0.04.
With “HMGGEIGSGKNGYVAFYKGKKVDVKADSMYGAQKTAAKYFNAKKEYDVNVVLAEVDGKQYVQS” the “soluble fraction (log2)” value was 0.343.
In the case of “HMTPDVHRGDTITVSLRAGAIRVRVPAKALEEGAAGGEIRVVNLTGGREYRVRVTGPGTAEAIL”, the “soluble fraction (log2)” value is reported as 0.0275.
For “HMRQISDPTALASMVDKVIEDNPSAVADYRRGESKALGFLIGRVMQSSGGKANPKMIRGLLVKNLES”, the “soluble fraction (log2)” value was -0.0922.
For “HMGSFFSKATAPVRTTGGDGLYKHGSIWFNTSTGRLFVYIPDDRYTGLLDTHNGDIGYWVDVS”, the “soluble fraction (log2)” value was -2.2.
For “HMGEGRVRLAQEAANRFMTAMAGDRPGFEEAGRALFAGDRARFHAETEGWPEDIRDHARRLAEPALQ”, the “soluble fraction (log2)” value was 0.0288.
In the case of “HMKGVSFEEIERAVRTAQNPEADETAQQHAGMVFSRMEGNELFDKLVQSSSTIGKKITGLMDYYL”, the “soluble fraction (log2)” value is reported as -0.0889.
With “HMVEVPYSEFLKELDAGNVKDVYVSNGESQIQFTKKDQKQWNLSYKTGPIPGDDLVKRLQNADVENFT” the “soluble fraction (log2)” value was 0.0879.
In the case of “HMPKITTIHIDPEKISKVIGPGGKTVKKIIEETGAKIDIEDTGKIFIAAVNTEAANKAIDMINGIVA”, the “soluble fraction (log2)” value is reported as 0.103.
With “HMDSFEEGTYRKNQRGFGFVKIENQEDEIFISKENSLNALNGDRVIVEIIEDKDRTKRAEGKIKKILKHE” the “soluble fraction (log2)” value was 0.201.
In the case of “HMPTSILEKILNSAAEQFTRYGFKTITMDDIARHAGVSKKTLYQHFETKLDIIVAAVTHFHTMKF”, the “soluble fraction (log2)” value is reported as -0.718.
In the case of “HMAEAETVKFVGNSLLLVSGAAKGERLSVYTVGGQHVLSADATKPVDVAALHSGVYVVRTTNGVITKIVK”, the “soluble fraction (log2)” value is reported as -0.749.
In the case of “HMNILAPFWERFGLSAFAAGNYDRAEGYFRKLEQKDPNSMSVLRNLGLILMAKGDAEGAEAYLLREEKL”, the “soluble fraction (log2)” value is reported as -0.67.
In the case of “HMGQVSDENQLNKVIDEVIKNYPIQVEQFKAGKEPILQFLKGMVMKATEGSADPAVAEKLLRKKL”, the “soluble fraction (log2)” value is reported as 0.237.
For “HMYLNYQTIGKRIRLLRKQQHLTQMTLAEMVDKSPTYISLVENGQKGPSLETLIDVANALKVTMDVLLAEY”, the “soluble fraction (log2)” value was -4.39.
In the case of “HMIMEVDYGTFMKMTEENAIGRVQMDSTEIIFTDKENTQVYSTGIMYDPDLTQRLYDAGAVFA”, the “soluble fraction (log2)” value is reported as -0.986.
In the case of “HMETEQVEMIRVVGMHVDEAKKALLDLGLSPEIKYEESSSYDAGTVLRASVQDGLMIDKGTNIVLTVAEA”, the “soluble fraction (log2)” value is reported as 0.121.
